Assay results: publication PMC7437983 (Traffic (Copenhagen, Denmark), 2020)

Molecular target: Nup358-min-GST, human Nup358 residues 2148-2240 (human, UniProt P49792 2148-2240)
Experiment: pull-down

Chain of Nup358-min-GST, human Nup358 residues 2148-2240 (P49792 2148-2240): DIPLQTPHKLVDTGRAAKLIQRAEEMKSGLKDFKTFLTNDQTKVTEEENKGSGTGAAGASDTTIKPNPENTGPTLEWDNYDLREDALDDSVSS

B1: human Bicaudal D2 C-terminal cargo-binding domain, wild type (domain or fragment, UniProt Q8TD16 715-804, looked up)
chain: YENEKAMVTETMMKLRNELKALKEDAATFSSLRAMFATRCDEYITQLDEMQRQLAAAEDEKKTLNSLLRMAIQQKLALTQRLELLELDHE
Q: Does B1 bind?
A: binds
